Data reported in patent US20180030149A1 (AVEO PHARMACEUTICALS, published 2018).

Biological target: T1, recombinant human ErbB3 monomeric protein (cleaved rhErbB3) (human, UniProt P21860 20-643, limits assumed)
T1 construct: Monomer made by protease cleavage of the Fc fusion; also called Monomeric ErbB3
Test: SPR Biacore 37 C; supernatant antibody captured on anti-human Fc, cleaved rhErbB3 injected
Experimental: The analyses were performed at 37° C. using PBS (Invitrogen, Catalog No. 14040-133) containing 0.05% surfactant P20 (Biacore, Catalog No. BR-1000-54) as running buffer.
The antibodies were captured in individual flow cells at a flow rate of […]. Injection time was varied for each antibody to yield an Rₘₐₓ between 30 and 60 RU. […] The dissociation phase was monitored for up to 1200 seconds. The surface was then regenerated with two 60 second injections of Glycine pH 2.25 (made from Glycine pH 2.0 (Biacore, Catalog No. BR-1003-55) and pH 2.5 (Biacore, Catalog No. BR-1003-56)) at […].
Kinetic parameters were determined using the kinetic function of the BIAevaluation software (Biacore) with double reference subtraction. Kinetic parameters for each antibody, kₐ (association rate constant), kd (dissociation rate constant) and KD (equilibrium dissociation constant) were determined.

Row | Binder | Kd [nM] | koff [s⁻¹] | kon [M⁻¹ s⁻¹]
1 | Sh24C05-45 (antibody, human IgG1, kappa, V domains shown, Humanized, human IgG1/kappa) VH: EVQLVESGGGLVKPGGSLRLSCAASGFTFSDYAMSWVRQAPGKGLEWVSTISDGGTYTYYPDNVKGRFTISRDNAKNSLYLQMNSLRAEDTAVYYCAREWGDYDGFDYWGQGTLVTVSS VL: DIQMTQSPSSLSASVGDRVTITCRASQEISGYLSWYQQKPGKAPKLLIYAASTLDSGVPSRFSGSGSGTDFTLTISSLQPEDFATYYCLQYDSYPYTFGQGTKLEIKR | 0.707 | 0.00606 | 8.57e+06
2 | Sh24C05-29 (antibody, human IgG1, kappa, V domains shown, Humanized, human IgG1/kappa) VH: QVQLVESGGGVVQPGRSLRLSCAASGFTFSDYAMSWVRQAPGKGLEWVATISDGGTYTYYPDNVKGRFTISRDNSKNTLYLQMSSLRAEDTAVYYCAREWGDYDGFDYWGQGTLVTVSS VL: DIQMTQSPSSLSASVGDRVTITCRASQEISGYLSWYQQKPGKAPKRLIYAASTLDSGVPSRFSGSGSGTEFTLTISSLQPEDFATYYCLQYDSYPYTFGQGTKLEIKR | 0.182 | 0.000588 | 3.25e+06
3 | Sh24C05-16 (antibody, human IgG1, kappa, V domains shown, Humanized, human IgG1/kappa) VH: EVQLLESGGGLVQPGGSLRLSCAASGFTFSDYAMSWVRQAPGKGLEWVSTISDGGTYTYYPDNVKGRFTISRDNSKNTLYLQMNSLRAEDTAVYYCAREWGDYDGFDYWGQGTLVTVSS VL: DIQMTQSPSSLSASVGDRVTITCRASQEISGYLSWLQQKPGGAIKRLIYAASTLDSGVPSRFSGSGSGSDYTLTISSLQPEDFATYYCLQYDSYPYTFGQGTKLEIKR | 0.147 | 0.000404 | 2.75e+06
4 | Sh24C05-30 (antibody, human IgG1, kappa, Humanized, human IgG1/kappa) heavy: not shown light: DIQMTQSPSSLSASVGDRVTITCRASQEISGYLSWYQQKPGKAPKRLIYAASTLDSGVPSRFSGSGSGTEFTLTISSLQPEDFATYYCLQYDSYPYTFGQGTKLEIKRTVAAPSVFIFPPSDEQLKSGTASVVCLLNNFYPREAKVQWKVDNALQSGNSQESVTEQDSKDSTYSLSSTLTLSKADYEKHKVYACEVTHQGLSSPVTKSFNRGEC | 0.19 | 0.000787 | 4.48e+06
5 | Sh24C05-27 (antibody, human IgG1, kappa, V domains shown, Humanized, human IgG1/kappa) VH: EVQLVESGGGLVKPGGSLRLSCAASGFTFSDYAMSWVRQAPGKGLEWVSTISDGGTYTYYPDNVKGRFTISRDNAKNSLYLQMNSLRAEDTAVYYCAREWGDYDGFDYWGQGTLVTVSS VL: DIQMTQSPSSLSASVGDRVTITCRASQEISGYLSWYQQKPGKAPKRLIYAASTLDSGVPSRFSGSGSGTEFTLTISSLQPEDFATYYCLQYDSYPYTFGQGTKLEIKR | 0.24 | 0.000798 | 3.34e+06
6 | Sh24C05-15 (antibody, human IgG1, kappa, V domains shown, Humanized, human IgG1/kappa) VH: EVQLVESGGGLVKPGGSLRLSCAASGFTFSDYAMSWVRQAPGKGLEWVSTISDGGTYTYYPDNVKGRFTISRDNAKNSLYLQMNSLRAEDTAVYYCAREWGDYDGFDYWGQGTLVTVSS VL: DIQMTQSPSSLSASVGDRVTITCRASQEISGYLSWLQQKPGGAIKRLIYAASTLDSGVPSRFSGSGSGSDYTLTISSLQPEDFATYYCLQYDSYPYTFGQGTKLEIKR | 0.187 | 0.000499 | 2.67e+06
7 | Sh24C05-35 (antibody, human IgG1, kappa, V domains shown, Humanized, human IgG1/kappa) VH: QVQLVESGGGVVQPGRSLRLSCAASGFTFSDYAMSWVRQAPGKGLEWVATISDGGTYTYYPDNVKGRFTISRDNSKNTLYLQMSSLRAEDTAVYYCAREWGDYDGFDYWGQGTLVTVSS VL: DIQMTQSPSSLSASVGDRVTITCRASQEISGYLSWYQQKPGKAPKLLIYAASTLDSGVPSRFSGSGSGTDFTFTISSLQPEDIATYYCLQYDSYPYTFGQGTKLEIKR | 0.655 | 0.00553 | 8.44e+06
8 | Sh24C05-21 (antibody, human IgG1, kappa, V domains shown, Humanized, human IgG1/kappa) VH: EVQLVESGGGLVKPGGSLRLSCAASGFTFSDYAMSWVRQAPGKGLEWVSTISDGGTYTYYPDNVKGRFTISRDNAKNSLYLQMNSLRAEDTAVYYCAREWGDYDGFDYWGQGTLVTVSS VL: DIQMTQSPSSLSASVGDRVTITCRASQEISGYLSWFQQKPGKAPKSLIYAASTLDSGVPSRFSGSGSGTDFTLTISSLQPEDFATYYCLQYDSYPYTFGQGTKLEIKR | 0.22 | 0.000662 | 3.11e+06
9 | Sh24C05-20 (antibody, human IgG1, kappa, Humanized, human IgG1/kappa) heavy: not shown light: DIQMTQSPSSLSASVGDRVTITCRASQEISGYLSWFQQKPGKAPKSLIYAASTLDSGVPSRFSGSGSGTDFTLTISSLQPEDFATYYCLQYDSYPYTFGQGTKLEIKRTVAAPSVFIFPPSDEQLKSGTASVVCLLNNFYPREAKVQWKVDNALQSGNSQESVTEQDSKDSTYSLSSTLTLSKADYEKHKVYACEVTHQGLSSPVTKSFNRGEC | 0.221 | 0.000591 | 2.67e+06
10 | Sh24C05-22 (antibody, human IgG1, kappa, V domains shown, Humanized, human IgG1/kappa) VH: EVQLLESGGGLVQPGGSLRLSCAASGFTFSDYAMSWVRQAPGKGLEWVSTISDGGTYTYYPDNVKGRFTISRDNSKNTLYLQMNSLRAEDTAVYYCAREWGDYDGFDYWGQGTLVTVSS VL: DIQMTQSPSSLSASVGDRVTITCRASQEISGYLSWFQQKPGKAPKSLIYAASTLDSGVPSRFSGSGSGTDFTLTISSLQPEDFATYYCLQYDSYPYTFGQGTKLEIKR | 0.216 | 0.000601 | 2.79e+06
11 | Sh24C05-24 (antibody, human IgG1, kappa, Humanized, human IgG1/kappa) heavy: not shown light: DIQMTQSPSSLSASVGDRVTITCRASQEISGYLSWFQQKPGKAPKSLIYAASTLDSGVPSRFSGSGSGTDFTLTISSLQPEDFATYYCLQYDSYPYTFGQGTKLEIKRTVAAPSVFIFPPSDEQLKSGTASVVCLLNNFYPREAKVQWKVDNALQSGNSQESVTEQDSKDSTYSLSSTLTLSKADYEKHKVYACEVTHQGLSSPVTKSFNRGEC | 0.218 | 0.000628 | 2.9e+06
12 | Sh24C05-23 (antibody, human IgG1, kappa, V domains shown, Humanized, human IgG1/kappa) VH: QVQLVESGGGVVQPGRSLRLSCAASGFTFSDYAMSWVRQAPGKGLEWVATISDGGTYTYYPDNVKGRFTISRDNSKNTLYLQMSSLRAEDTAVYYCAREWGDYDGFDYWGQGTLVTVSS VL: DIQMTQSPSSLSASVGDRVTITCRASQEISGYLSWFQQKPGKAPKSLIYAASTLDSGVPSRFSGSGSGTDFTLTISSLQPEDFATYYCLQYDSYPYTFGQGTKLEIKR | 0.263 | 0.000721 | 2.79e+06
13 | Sh24C05-18 (antibody, human IgG1, kappa, Humanized, human IgG1/kappa) heavy: not shown light: DIQMTQSPSSLSASVGDRVTITCRASQEISGYLSWLQQKPGGAIKRLIYAASTLDSGVPSRFSGSGSGSDYTLTISSLQPEDFATYYCLQYDSYPYTFGQGTKLEIKRTVAAPSVFIFPPSDEQLKSGTASVVCLLNNFYPREAKVQWKVDNALQSGNSQESVTEQDSKDSTYSLSSTLTLSKADYEKHKVYACEVTHQGLSSPVTKSFNRGEC | 0.161 | 0.000463 | 2.88e+06
14 | Sh24C05-33 (antibody, human IgG1, kappa, V domains shown, Humanized, human IgG1/kappa) VH: EVQLVESGGGLVKPGGSLRLSCAASGFTFSDYAMSWVRQAPGKGLEWVSTISDGGTYTYYPDNVKGRFTISRDNAKNSLYLQMNSLRAEDTAVYYCAREWGDYDGFDYWGQGTLVTVSS VL: DIQMTQSPSSLSASVGDRVTITCRASQEISGYLSWYQQKPGKAPKLLIYAASTLDSGVPSRFSGSGSGTDFTFTISSLQPEDIATYYCLQYDSYPYTFGQGTKLEIKR | 1.08 | 0.00433 | 4.02e+06
15 | Sh24C05-28 (antibody, human IgG1, kappa, V domains shown, Humanized, human IgG1/kappa) VH: EVQLLESGGGLVQPGGSLRLSCAASGFTFSDYAMSWVRQAPGKGLEWVSTISDGGTYTYYPDNVKGRFTISRDNSKNTLYLQMNSLRAEDTAVYYCAREWGDYDGFDYWGQGTLVTVSS VL: DIQMTQSPSSLSASVGDRVTITCRASQEISGYLSWYQQKPGKAPKRLIYAASTLDSGVPSRFSGSGSGTEFTLTISSLQPEDFATYYCLQYDSYPYTFGQGTKLEIKR | 0.189 | 0.000614 | 3.26e+06
16 | Sh24C05-26 (antibody, human IgG1, kappa, Humanized, human IgG1/kappa) heavy: not shown light: DIQMTQSPSSLSASVGDRVTITCRASQEISGYLSWYQQKPGKAPKRLIYAASTLDSGVPSRFSGSGSGTEFTLTISSLQPEDFATYYCLQYDSYPYTFGQGTKLEIKRTVAAPSVFIFPPSDEQLKSGTASVVCLLNNFYPREAKVQWKVDNALQSGNSQESVTEQDSKDSTYSLSSTLTLSKADYEKHKVYACEVTHQGLSSPVTKSFNRGEC | 0.22 | 0.000739 | 3.36e+06
17 | Sh24C05-34 (antibody, human IgG1, kappa, V domains shown, Humanized, human IgG1/kappa) VH: EVQLLESGGGLVQPGGSLRLSCAASGFTFSDYAMSWVRQAPGKGLEWVSTISDGGTYTYYPDNVKGRFTISRDNSKNTLYLQMNSLRAEDTAVYYCAREWGDYDGFDYWGQGTLVTVSS VL: DIQMTQSPSSLSASVGDRVTITCRASQEISGYLSWYQQKPGKAPKLLIYAASTLDSGVPSRFSGSGSGTDFTFTISSLQPEDIATYYCLQYDSYPYTFGQGTKLEIKR | 0.552 | 0.006 | 1.09e+07
18 | Sh24C05-19 (antibody, human IgG1, kappa, V domains shown, Humanized, human IgG1/kappa) VH: QVQLVESGGGLVKPGGSLRLSCAASGFTFSDYAMSWIRQAPGKGLEWVSTISDGGTYTYYPDNVKGRFTISRDNAKNSLYLQMNSLRAEDTAVYYCAREWGDYDGFDYWGQGTLVTVSS VL: DIQMTQSPSSLSASVGDRVTITCRASQEISGYLSWLQQKPGGAIKRLIYAASTLDSGVPSRFSGSGSGSDYTLTISSLQPEDFATYYCLQYDSYPYTFGQGTKLEIKR | 0.0855 | 0.000255 | 3e+06
19 | Sh24C05-14 (antibody, human IgG1, kappa, Humanized, human IgG1/kappa) heavy: not shown light: DIQMTQSPSSLSASVGDRVTITCRASQEISGYLSWLQQKPGGAIKRLIYAASTLDSGVPSRFSGSGSGSDYTLTISSLQPEDFATYYCLQYDSYPYTFGQGTKLEIKRTVAAPSVFIFPPSDEQLKSGTASVVCLLNNFYPREAKVQWKVDNALQSGNSQESVTEQDSKDSTYSLSSTLTLSKADYEKHKVYACEVTHQGLSSPVTKSFNRGEC | 0.173 | 0.000498 | 2.88e+06
